# Values of other authors in patent US9994615B2, “Self-regulated peptide hydrogel for insulin delivery” (Massachusetts Institute of Technology, priority 2012, dated 2018).
# Columns and labels:
# [1] = after subcutaneous injection
Compound,Time basal level of insulin is maintained [1],pKa
glargine,up to 24 hours,–
insulin detemir,up to 20 hours,–
OB(O)c1ccccc1 [phenylboronic acid],–,approximately 8.9
